Experimental data published in the nanobody polyreactivity screen of Harvey et al. (2022).

Experiment: yeast display, Sf9 membrane polyspecificity reagent, FACS + sequencing; frameworks hold sequencing errors
In short: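 Using colony PCR, genes from sorted yeast display clones were amplified, then sequenced on MiSeq at 2 × 250 and filtered by CDR length. The clones had been stained with 10% biotinylated, detergent-solubilized Sf9 membrane reagent for 1 hour at 4 °C and sorted by FACS into low and high (top ~1%) gates on anti-HA and streptavidin fluorescence. Polyreactivity labels come from the gate of origin.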
In the case of “QVQLVESGGGLDQAGGSLRLSCAASGTIFTFYTMGWYRQAPGKERELVAAINWSGSRTYYADSVKGRFTISRDNAKNTVYLQMNSLKPEDTAVYYCAAEHWFPSAPWYYSDLHYYWGQGTQVTVSS”, the “polyreactivity (PSR sort gate)” value is reported as “high polyreactivity”. With “QVQLVESGGGLDQAGGSLRLSCAASGYILPKNTMGWYRQAPGKERELVAAISWSGGSTFYADSVKGRFTISRDNAKNTVYLQMNSLKPEETAVYYCAADRSWSWYYRYDYWGQGTQVTVSS” the “polyreactivity (PSR sort gate)” value was “low polyreactivity”. In the case of “QVQLVESGGGLDQAGGSLRLSCAASGYIVRNAMGWYRQAPWKERELVAAISRRGGSTYYADSVKGRFTISRDNAKNTVYLQMNSLKPEDTAVYYCAKDNVIPSFVADYYYWGQGTQVTVSS”, the “polyreactivity (PSR sort gate)” value is reported as “high polyreactivity”. In the case of “QVQLVESGGGLDQAGGSLRLSCAASGYTFGRNAMGWYRQAPGKERELVATISQRGGSTYYADSVKGRFTISRDNANNTVYLQMNSLKPEDTAVYYCAAGPIYRYRRYYYWGQGTQVTVSS”, the “polyreactivity (PSR sort gate)” value is reported as “high polyreactivity”. For “QVQLVESGGGLDQAGGSLRLSCAAYGGTLYYNAMGWYRQAPGKEREFVAAISSRGGRTYYADSVKGRFTISRDNAKNTVYLQMNSLKPEDTAVYYCAGSRTGRTYPSNRMYYWGQGTQVSVSS”, the “polyreactivity (PSR sort gate)” value was “high polyreactivity”. With “QVQLVESGGGLDQAGGSLRLSCAAYGRILHFYAMGWYRQAPGKERELVSAIRWSSGRTYYADSVKGRFTISRDNAKNTVYLQMNSLKPEDTAVYYCAANNGYGMDYWGQGTQVTVSS” the “polyreactivity (PSR sort gate)” value was “high polyreactivity”. For “QVQLVESGGGLDQAGGSLRLSCAPSGSIFKRNAMGWYRQAPGKARELVAAISKSSGSTYYADSVKGRFTISRDNAKNTVYLQMNSLKPEDYAVYYCAAKYYSYVDKYYYWGQGTQVTVSS”, the “polyreactivity (PSR sort gate)” value was “high polyreactivity”. For “QVQLVESGGGLDQAGGSLRLSCASSGFTFGRYAMGWYRQAPGKERELVDTITRSGVNTYYADSVKGRFTISRDNAKNTVYLQMNSLKPEDTAVSYCNVRYPLATYRLPAGEFDYWGQGTQVTVSS”, the “polyreactivity (PSR sort gate)” value was “high polyreactivity”. For “QVQLVESGGGLDQAGGSLRLSFAASGLIFAVYAMGWYRQAPGKERELVAGISASAASTYYADSVKGRFTISRDNAKNTVYLQMNSLKPEDTAVYYCAAGFYRRGKYDYWGQGTQVTVSS”, the “polyreactivity (PSR sort gate)” value was “high polyreactivity”. For “QVQLVESGGGLDQAGGSLRLSFAASGSTFVPNVMGWYRQAPGKERELVASITSGGITNYADSVKGRFTISRDNAKNTVYLQMNSLKPEDTAVKGDYWGQGTQVTVSS”, the “polyreactivity (PSR sort gate)” value was “low polyreactivity”. In the case of “QVQLVESGGGLDQAGGSLRLSSAASGFIFWFNAMRWYRQAPGTERELVATISRSDTSTYYADSVKGRFTISRDNAKNSVYLQMNSLKPEDTAVYYCATDVRETWLPEYYWGQGTEVTVSS”, the “polyreactivity (PSR sort gate)” value is reported as “low polyreactivity”. With “QVQLVESGGGLDQAGGSLRLSSAASGLTFFSEYAMGLYRQPPGIERELVASIDWSGDSTYYADSVKGRFTISRDNAMKTVYLQMNSLKPEYTAVYYCAKDYSTEISQEYYYWVQGTQVTVSS” the “polyreactivity (PSR sort gate)” value was “high polyreactivity”. With “QVQLVESGGGLDQAGGSLRLSSAASGLTFVTYAMGWYRQAPGTERELVAAISYSGGSTYYADSVKGRFTISRDNAKNTVYLQMNSLKPEDTAVYYCNARSPQPDGRPPYNYWGQGTQVTVSS” the “polyreactivity (PSR sort gate)” value was “high polyreactivity”. With “QVQLVESGGGLDQAGGSLRLSSAASGSIFLPNAMGWYRQAPGKEREFVADISWTGGRTYYADSVKGRFTISRDNAKHTVYLQMNRLKQEDTAVYYCAAKQYRYGLDYWGQGTQVTVSS” the “polyreactivity (PSR sort gate)” value was “high polyreactivity”. In the case of “QVQLVESGGGLDQAGGSLRLSWAASGITFGWYAKGWYRLAPGKERELVASISSSGSTNYADSVKGRLTISRDNAKNTVYLQMNSQKTEDTAVYYCNKDYLLRHFYIYVIEGDYWGQGTKVTVSS”, the “polyreactivity (PSR sort gate)” value is reported as “low polyreactivity”. With “QVQLVESGGGLDQAGGSLRLTCAASGFIIHRYAMAWYRQGPGTEMELVAAISRSGVSTNYADSVKGRFTISRDNPKNTVYLHMYSLKTEDTSVYYCASPYYSYQSYKYWGKGTQVTVSS” the “polyreactivity (PSR sort gate)” value was “high polyreactivity”.
